Test results reported in the supplement of paper PMC9170038.

Columns and labels:
MS2 coat protein [1] = test: apparent KD of MS2 coat protein, switch ON state; designed switch direction (-1 OFF switch, 1 ON switch): -1; higher = weaker reporter binding; conditions: FMN input: 0 or 200 uM; Eterna round: R93 (includes R88 designs)
How it was run: (§1)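 With or without constant ligand, designed RNA switches in 100 mM Tris-HCl pH 7.5, 80 mM KCl and 4 mM MgCl2 were titrated with SNAP-549-labelled MS2 coat protein. Concentrations went up in twofold steps from 0.7 or 1.5 nM to 3 µM. The switches had been transcribed on-chip from Illumina sequencing clusters, and apparent KD is the per-design median of normalised cluster binding-curve fits.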

MS2 coat protein [2] = test: apparent KD of MS2 coat protein, switch OFF state (with FMN for OFF switches, without FMN for ON switches); designed switch direction (-1 OFF switch, 1 ON switch): -1; higher = weaker reporter binding; conditions: FMN input: 0 or 200 uM; Eterna round: R93 (includes R88 designs)
How it was run: as §1

Sequence	apparent KD of MS2 coat protein (MS2 coat protein [1]) [nM]	apparent KD of MS2 coat protein (MS2 coat protein [2]) [nM]
AAGAAGCGAGGAUAUACAAAAUAAAAGAAAAGAAAGAAAGAACAUGAGGAUCACCCAUGUAGAAGGCGUAAGAA [Sankhenre Sewadjtu]	13.3	11.1
AAGAAGUCAGGAUAUACAUGAGGAUCACCCAUGUAAAAGAAAGAGGGAAAAGAGAAAAGUAGAAGGGACAAGAA [Arsinoe I]	29.1	32.1
AAGAAGUCAGGAUAUGCCAGAGAUCAAGAAAGUGACGAGUAGCAGAAGGGACAUGAGGAUCACCCAUGUAAAGA [Opal 8]	45.9	36.9
AAGAAGUCAGGAUAUGCUGCUCGUCACAAAAGUGAUGAGUAGCAGAAGGGACAUGAGGAUCACCCAUGUAAAGA [JL eternac mod 0]	52	67.5
AAGAAGUCAGGAUAUGCUUGUCGUCACAAAAGUGAUGACGAGCAGAAGGGACAUGAGGAUCACCCAUGUAAAGA [JL eternac mod 1]	42.1	41.9
AAGAAGUGAGGAUAUCCAAAAGAAAAGAAAAGAAAAGAAAAGGAGAAGGCACAUGAGGAUCACCCAUGUAAGAA [Ankhkaenre Psamtik III]	26.3	28.4
AAGAAUGAAGGAUAUACAUGAGGAUCACCCAUGUAAAAGAAAGAGGGAAAAGAGAAAAGUAGAAGGUCAAAGAA [Ptolemy XI Alexander II]	19.8	20.4
AAGACUAGAGGAUAUACAUGAGGAUCACCCAUGUAACUGUCAGGAAACUGACGGAGAUGUAGAAGGCUAGUCAA [Mat - Exclusion 3 - Neo mod - D75]	16.7	38.4
AAGAGUAGAGGAUAUACAUGAGGAUCACCCAUGUAAUCCAGAUAAGGAAGCAUGUCGUGUAGAAGGCUGCAUGA [MOD 2 of Nando (MS2 Riboswitches- Exclusion 3)]	15.9	14.4
AAGAUGUGAGGAUAUGCUUGUCGUCACAAAAGUGAUGACGAGCAGAAGGCACAUGAGGAUCACCCAUGUAAAGA [Opal 26]	90.1	147
AAGGGACAUGAGGAUCACCCAUGUGAGGAUAUGACGUAAAGAAAGAAAGAAGAAAUCGUCAGAAGGCACACCAA [Mat - Exclusion 1 - Eli mod - D70]	70.6	118
AAGGUACGAGGAUAUACAUAGAUACAGACACAUGUACAUGUACAUGAGGAUCACCCAUGUAGAAGGCGUAUAUG [Mat - Same state - Mayanna Mod - D109]	67.5	73.9
AAGUACGAAGGAUAUACAUGGAUAUACAUUCAUGUGGACCUACAUGAGGAUCACCCAUGUAGAAGGUCGUAAUA [Mat - Same state - Mayanna Mod - D145]	24.6	12.8
AAGUGGGCAGGAUAUACAUGAGGAUCACCCAUGUAAAGAAAAGAAAGAUCCGAAGAAAGUAGAAGGGCCUGCAA [Mod 1 of Ex3 sub 3, by Tesla's Dusciple Round 1]	144	137
AAUAACAGAGGAUAUGCGAAAAUAAGCGGAAACGCAAAGGGACAUGAGGAUCACCCAUGUAGAAGGCUGGAUAA [Tetraloop... 61% 1]	34.4	29.5
AAUAACCGAGGAUAUACAAAACUUGUGAUCUAGUGGAUUUUACAUGAGGAUCACCCAUGUAGAAGGCGGAAAAG [Veenquge]	61.3	212
AAUAACCGAGGAUAUACAUGAGGAUCACCCAUGUGAACAUCCACGAAAAGGAUUCUGUGUAGAAGGCGGAAACC [Soquar]	15.3	13.4
AAUAAGAGAGGAUAUACAUAAUAAAAGAAAAGAAACAAAGAACAUGAGGAUCACCCAUGUAGAAGGCUCAAUAA [Sonbef]	21.9	18.9
AAUAAGUCAGGAUAUGCAAAUAAUAAAUAAAAUAAAAUAAAGCAGAAGGGACAUGAGGAUCACCCAUGUAAAUA [Opal 40]	47.9	41
AAUACACAUGAGGAUCACCCAUGUAAGGAUAUCGAAAAAAAACUAAACAAAAAACAAACGAGAAGGUACAAAAA [Exclusion 1 design 4]	30.4	23.9

Sequence	apparent KD of MS2 coat protein (MS2 coat protein [1]) [nM]	apparent KD of MS2 coat protein (MS2 coat protein [2]) [nM]
AAUAUCGGAGGAUAUGCAUAGAUAAAGAACCAUGUUAAAACACAUGAGGAUCACCCAUGUAGAAGGCCGAUAAA [AJ 9]	54.1	77.5
AAUAUGUAAGGAUAUGCUGCUCGUCACAAAAGUGAUGAGUAGCAGAAGGUACAUGAGGAUCACCCAUGUAAAGA [JL eternac mod 13]	30.9	52
AAUAUGUUAGGAUAUGCGAAGUCAGGACACACACUGACGAAGCAGAAGGAACAUGAGGAUCACCCAUGUAAUAA [JR_Exclusion-4 65% 6]	27.6	26.6
AAUAUGUUAGGAUAUGCUGCUCGUCACAAAAGUGAUGAGUAGCAGAAGGAACAUGAGGAUCACCCAUGUAAAGA [JL eternac mod 12]	31.1	39
AAUGGUGCAGGAUAUACAUGAGGAUCACCCAUGUACAUCAGACAUAUGGUCGAAACAUGUAGAAGGGCACCAAA [Ex 3May 55]	107	336
AAUUAGGUAGGAUAUACAUGAGGAUCACCCAUGUGGGAAAAAAACUACGAAAAAGAAUGUAGAAGGACCUAAAA [Mat - Exclusion 3 - Mayanna mod - D104]	20.3	96.5
ACCUCACAUGAGGAUCACCCAUGUUAGGAUAUGCCCGGCAGGUUCUGACCUGCCUAAAGCAGAAGGAACGUGCG [Beusus]	17.4	57.9
ACCUGACAUGAGGAUCACCCAUGUGAGGAUAUGUACAUCAGGAAAAAAAAACUGAUGUACAGAAGGCACAAGGG [Amethyst 49]	23.1	38.7
ACCUUACAUGAGGAUCACCCAUGUUAGGAUAUCUCGCUCUCGCAGUCACAGCGCAAGCAGAGAAGGGACACGGG [Maretien]	32.6	36.6
ACGAAACAUGAGGAUCACCCAUGUCAGGAUAUGAACGAAAAUAAAUAAAAAUAAAAGUUCAGAAGGGACGACGA [66%, Wbt, 24]	39.5	53
ACGACUAGAGGAUAUACAUGAGGAUCACCCAUGUAACUGUCAGAAAACUGACGGAGAUGUAGAAGGCUAGUCGA [Mat - Exclusion 3 - Neo mod - D80]	16.7	36.1
ACUAACGGAGGAUAUACUAACAAACCUCAAACAUACAUCAAACAUGAGGAUCACCCAUGUAGAAGGCCGAAACU [JR_Exc002_Sub004]	34.4	52.8
AGAAAACAUGAGGAUCACCCAUGUAAGGAUAUGCUAAGGGUGGCUUCGGCCACCCAAUGCAGAAGGUACAAAUA [Excalibur]	20.5	40.7
AGAAAACAUGAGGAUCACCCAUGUGAGGAUAUGCGAAAGAAAGAAAGAAAGAAAGAAAGCAGAAGGCACAAGAA [Ex 1 Tesla 2]	15.6	44.4
AGAAAGUCAGGAUAUGCGAAGGCGUCUGAUAGACGAGGCUAGCAGAAGGGACAUGAGGAUCACCCAUGUGAAAA [Mat - Exclusion 4 - Eli mod - D86]	48.4	133
AGAAUACAUGAGGAUCACCCAUGUGAGGAUAUGUAGAUAAAAAUAAAAUAAAAUAAAUACAGAAGGCGCAAAAG [EX 1 May 20]	44.5	44.9
AGCAAACAUGAGGAUCACCCAUGUGAGGAUAUGAACGAAAAUAAAUAAAAAUAAAAGUUCAGAAGGUACGAGCA [66%, Wbt, 27]	27.7	31.9
AGCACGUCAGGAUAUACGAAAAAAAAGGGUAAACUAAAGGGACAUGAGGAUCACCCAUGUAGAAGGGACAAGCA [Diamond 92]	90.8	245
AGCAGUACAGGAUAUACAUGAGGAUCACCCAUGUGAAAAAAAAGUGGCGUACCACAAAGUAGAAGGGUACUGCA [Mat - Exclusion 3 - JL mod - D32]	35.4	108
AGCUAGACAGGAUAUACGUAAAUGUCGAAAGACGUAUAGGGACAUGAGGAUCACCCAUGUAGAAGGGUCUAGCA [Diamond 100]	22.7	39.6
